Test results reported in the RNAGym collection of RNA variant scans (doi:10.1093/molbev/msab373).

B1: Azoarcus group I ribozyme (parent)
chain: GUGCCUUGCGCCGGGAAACCACGCAAGGGAUGGUGUCAAAUUCGGCGAAACCUAAGCGCCCGCCCGGGCGUAUGGCAACGCCGAGCCAAGCUUCGGCGCCUGCGCCGAUGAAGGUGUAGAGACUAGACGGCACCCACCUAAGGCAAACGCUAUGGUGAAGGCAUAGUCCAGGGAGUGGCGAAAGUCACACAAACCGG

Variants of: B1
Assay: reverse-splicing fitness (ratio to wild type); higher = more active; in vitro selection; Mg2+ level not given
Summary of the method: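 An in vitro group I ribozyme library with randomized positions was T7-transcribed and gel-purified. In triplicate, 10 pmol RNA in EPPS pH 7.5 was reacted with 50 pmoles of a 30-nt RNA substrate for 1 h at 37 °C across several added MgCl2 levels (1–48 mM), then stopped with EDTA. Products were reverse transcribed from a substrate-complementary primer, PCR-amplified and sequenced (HiSeq 4000). Fitness is a variant's read proportion after selection over that before, normalised to wild type.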

Point of comparison: A111G A120C A145C C150G C169A U176G, reverse-splicing fitness 0.00452. Against it:
- A111C A145U C169U — higher, 0.116
- A111C A145U C169A — higher, 0.0348
- A111C A145U C169G — higher, 0.071
- A111C C150G C169U U176C — higher, 0.014
- A111C C150G C169U U176A — higher, 0.00732
- A111C C150G C169U U176G — higher, 0.00651
- A111C A145G C150A C169G U176C — higher, 0.0293
- A111C A145G C150A C169G U176A — higher, 0.0153
- A111C A145G C150A C169G U176G — higher, 0.00728
- A111C A145U C150A U176A — higher, 0.114
- A111C A145U C150A U176G — higher, 0.0589
- A111C A145U C150A U176C — higher, 0.166
- A111G A120C A145G C169U — higher, 0.254
- A111G A120C A145G C169G — higher, 0.0121
- A111G A120C A145G C169A — higher, 0.0165
- A111G A120C A145G C150A C169A U176C — higher, 0.0181
- A111G A120C A145G C150A C169A U176A — higher, 0.0185
- A111G A120C A145G C150A C169A U176G — higher, 0.00507
- A111C A145G C150U C169U U176A — higher, 0.0237
- A111C A145G C150U C169U U176C — higher, 0.0254
- A111C A145G C150U C169U U176G — higher, 0.00751
- A111C C169G U176G — higher, 0.00725
- A111C C169G U176A — higher, 0.0217
- A111C C169G U176C — higher, 0.0355
- A111C A145U C169A U176C — higher, 0.018
- A111C A145U C169A U176G — higher, 0.00736
- A111C A145U C169A U176A — higher, 0.0141
- A111C A145G C169U U176C — higher, 0.0294
- A111C A145G C169U U176G — higher, 0.00717
- A111C A145G C169U U176A — higher, 0.0269
- A111G A120C A145C C169A U176C — higher, 0.00508
- A111G A120C A145C C169A U176A — higher, 0.0086
- A111G A120C A145C C169A U176G — lower, 0.00335
- A111G A120C A145C C150G C169A U176C — higher, 0.00524
- A111G A120C A145C C150G C169A U176A — higher, 0.00532
- A111G A120C A145G C150U C169G — higher, 0.0142
- A111G A120C A145G C150U C169A — higher, 0.0158
- A111G A120C A145G C150U C169U — higher, 0.224
- A111G A120C A145C C150G C169G U176C — higher, 0.00487
- A111G A120C A145C C150G C169G U176A — higher, 0.00746
- A111G A120C A145C C150G C169G U176G — lower, 0.0036
- A111G A120C A145C C150A C169A U176A — higher, 0.00728
- A111G A120C A145C C150A C169A U176G — lower, 0.00443
- A111G A120C A145C C150A C169A U176C — lower, 0.0045
- A111C C169U U176G — higher, 0.00757
- A111C C169U U176C — higher, 0.0304
- A111C C169U U176A — higher, 0.0264
- A111C A145G C169A U176G — higher, 0.0065
- A111C A145G C169A U176C — higher, 0.0307
- A111C A145G C169A U176A — higher, 0.0288
- A111C C150U C169U — higher, 0.0632
- A111C C150U C169A — higher, 0.0198
- A111C C150U C169G — higher, 0.0354
- A111G A120C A145U C150A C169A U176A — higher, 0.0107
- A111G A120C A145U C150A C169A U176G — lower, 0.00401
- A111G A120C A145U C150A C169A U176C — higher, 0.00676
- A111C A145G C169G U176G — higher, 0.00716
- A111C A145G C169G U176C — higher, 0.0392
- A111C A145G C169G U176A — higher, 0.0283
- A111G A120C A145G U176A — higher, 0.457
- A111G A120C A145G U176G — higher, 0.0972
- A111G A120C A145G U176C — higher, 0.44
- A111G A120C A145G C150G C169A U176C — higher, 0.0102
- A111G A120C A145G C150G C169A U176G — higher, 0.00623
- A111G A120C A145G C150G C169A U176A — higher, 0.00955
- A111C C150U — higher, 0.709
- A111C C150G — higher, 0.185
- A111C C150A — higher, 0.303
- A111C C150G U176C — higher, 0.0763
- A111C C150G U176G — higher, 0.0131
- A111C C150G U176A — higher, 0.0504
- A111C A145U C150G C169G U176C — higher, 0.00594
- A111C A145U C150G C169G U176A — higher, 0.00777
- A111C A145U C150G C169G U176G — higher, 0.0067
- A111C A145U C150U C169A — higher, 0.0212
- A111C A145U C150U C169G — higher, 0.0433
- A111C A145U C150U C169U — higher, 0.0751
- A111G A120C A145U C150A — higher, 0.111
- A111G A120C A145G C150A C169U U176C — higher, 0.0231
- A111G A120C A145G C150A C169U U176G — higher, 0.00549
- A111G A120C A145G C150A C169U U176A — higher, 0.0243
- A111G A120C A145G C150G C169U U176A — higher, 0.00706
